Assay results taken from the RNAGym collection of RNA variant scans (doi:10.1021/acssynbio.7b00057).

B1: Pistol ribozyme (parent)
chain: GGGUCGUUGUUCCAUAAUCGCGUGGAUAUGGCACGCAAGUUUCUACCGGGCACCGUAAAUGUCCGACUGGAGCCGUUCGGGCGGCUAUAAACAGACCUCAGGCCCGAAGCGUGGCGGCACCUGCCGCCGGUGGUAAAAAAGAUCGGAAGAGCACACGUCU

Variants of: B1
Assay: aptazyme ON/OFF ratio, guanine; higher = stronger switching; co-transcriptional cleavage with and without guanine

| Variant | aptazyme ON/OFF ratio |
| --- | --- |
| U7A U8C U10A U11C C12U C13G | 1.07 |
| U7A U8C U10A U11C C12U C13U | 1.05 |
| U7A U8C U10A U11C C12U C13A | 1.07 |
| U7A U8C U10A U11G C12G C13A | 1.36 |
| U7A U8C U10A U11G C12G C13G | 1.28 |
| U7A U8C U10A U11G C12G C13U | 1.45 |
| U7A U8C U10G U11G C12A C13A | 1.14 |
| U7A U8C U10G U11G C12A C13U | 1.34 |
| U7A U8C U10G U11G C12A C13G | 1.15 |
| U7A U8C U10A C12A C13A | 1.22 |
| U7A U8C U10A C12A C13U | 1.22 |
| U7A U8C U10A C12A C13G | 1.15 |
| U7A U8C G9U U11A C12U | 1.28 |
| U7A U8C G9U U11A C12G | 1.23 |
| U7A U8C G9U U11A C12A | 1.32 |
| U7A U8C U10G U11A C13U | 1.09 |
| U7A U8C U10G U11A C13G | 1.2 |
| U7A U8C U10G U11A C13A | 1.12 |
| U7A U8C U10A U11C C13A | 1.05 |
| U7A U8C U10A U11C C13G | 1.05 |
| U7A U8C U10A U11C C13U | 1.02 |
| U7A U8C U10A U11A C12G C13A | 1.11 |
| U7A U8C U10A U11A C12G C13U | 1.28 |
| U7A U8C U10A U11A C12G C13G | 1.31 |

| Variant | aptazyme ON/OFF ratio |
| --- | --- |
| U7A U8C G9U U11C C12G C13G | 1.05 |
| U7A U8C G9U U11C C12G C13U | 1.18 |
| U7A U8C G9U U11C C12G C13A | 1.13 |
| U7A U8C U10C U11A | 1.16 |
| U7A U8C U10C U11C | 1.04 |
| U7A U8C U10C U11G | 1.26 |
| U7A U8C U10A U11G C12G | 1.32 |
| U7A U8C U10A U11G C12A | 1.1 |
| U7A U8C U10A U11G C12U | 1.27 |
| U7A U8C U10G C12A C13A | 1.13 |
| U7A U8C U10G C12A C13U | 1.15 |
| U7A U8C U10G C12A C13G | 1.05 |
| U7A U8C U11A C12G | 1.16 |
| U7A U8C U11A C12A | 1.32 |
| U7A U8C G9U U11C C12A C13U | 1.2 |
| U7A U8C G9U U11C C12A C13A | 1.18 |
| U7A U8C G9U U11C C12A C13G | 1.1 |
| U7A U8C U10C | 2.24 |
| U7A U8C U10G | 1.47 |
| U7A U8C U10A | 1.06 |
| U7A U8C G9U U10G C12U C13A | 1.61 |
| U7A U8C G9U U10G C12U C13G | 1.72 |
| U7A U8C G9U U10G C12U C13U | 1.14 |
| U7A U8C U10G U11A C12U | 1.11 |

| Variant | aptazyme ON/OFF ratio |
| --- | --- |
| U7A U8C U10G U11A C12A | 1.42 |
| U7A U8C U10G U11A C12G | 1.37 |
| U7A U8C G9U U10C U11G | 1.22 |
| U7A U8C U10A U11A C13G | 1.29 |
| U7A U8C U10A U11A C13A | 1.2 |
| U7A U8C U10A U11A C13U | 1.12 |
| U7A U8C U10C U11G C13A | 1.2 |
| U7A U8C U10C U11G C13G | 1.24 |
| U7A U8C U10C U11G C13U | 1.23 |
| U7A U8C U10C U11C C13A | 1.03 |
| U7A U8C U10C U11C C13U | 1.01 |
| U7A U8C U10C U11C C13G | 1.17 |
| U7A U8C U10C C12U C13U | 1.38 |
| U7A U8C U10C C12U C13G | 1.26 |
| U7A U8C U10C C12U C13A | 1.17 |
| U7A U8C U10C U11C C12A C13G | 1.16 |
| U7A U8C U10C U11C C12A C13A | 1.09 |
| U7A U8C U10C U11C C12A C13U | 1.16 |
| U7A U8C U10G C12U C13A | 1.21 |
| U7A U8C U10G C12U C13G | 1.14 |
| U7A U8C U10G C12U C13U | 1.34 |
| U7A U8C U10C C12G C13A | 1.34 |
| U7A U8C U10C C12G C13G | 1.22 |
| U7A U8C U10C C12G C13U | 1.41 |

| Variant | aptazyme ON/OFF ratio |
| --- | --- |
| U7A U8C U10G U11C C12A C13G | 1.12 |
| U7A U8C U10G U11C C12A C13A | 1.34 |
| U7A U8C U10G U11C C12A C13U | 1.39 |
| U7A U8C U10A C13G | 1.01 |
| U7A U8C U10A C13U | 1.05 |
| U7A U8C U10A C13A | 1.06 |
| U7A U8C G9U U10G U11C C12G C13A | 1.22 |
| U7A U8C G9U U10G U11C C12G C13G | 1.17 |
| U7A U8C G9U U10G U11C C12G C13U | 1.21 |
| U7A U8C U11A C12G C13A | 1.06 |
| U7A U8C U11A C12G C13U | 1.15 |
| U7A U8C U11A C12G C13G | 1.1 |
| U7A U8C G9U U10G U11A C12A | 1.14 |
| U7A U8C G9U U10G U11A C12U | 1 |
| U7A U8C G9U U10G U11A C12G | 1.21 |
| U7A U8C U10G C13G | 1.24 |
| U7A U8C U10G C13U | 1.31 |
| U7A U8C U10G C13A | 1.4 |
| U7A U8C G9U U10G U11C C12U C13G | 1.19 |
| U7A U8C G9U U10G U11C C12U C13U | 1.09 |
| U7A U8C G9U U10G U11C C12U C13A | 1.2 |
| U7A U8C U10G U11C C12G C13G | 1.17 |
| U7A U8C U10G U11C C12G C13A | 1.45 |
| U7A U8C U10G U11C C12G C13U | 1.57 |

| Variant | aptazyme ON/OFF ratio |
| --- | --- |
| U7A U8C G9U U10G U11A C13G | 1.08 |
| U7A U8C G9U U10G U11A C13A | 1.04 |
| U7A U8C G9U U10G U11A C13U | 1.06 |
| U7A U8C U10A U11C | 1.03 |
| U7A U8C U10A U11G | 1.17 |
| U7A U8C U10A U11A | 1.18 |
| U7A U8C G9U U11G C12A | 1.09 |
| U7A U8C G9U U11G C12U | 1.35 |
| U7A U8C G9U U11G C12G | 1.16 |
| U7A U8C G9U U10G C12G C13A | 1.19 |
| U7A U8C G9U U10G C12G C13G | 1.14 |
| U7A U8C G9U U10G C12G C13U | 1.28 |
| U7A U8C U10A U11G C12U C13G | 1.16 |
| U7A U8C U10A U11G C12U C13U | 1.26 |
| U7A U8C U10A U11G C12U C13A | 1.28 |
| U7A U8C U10C U11G C12U C13G | 1.16 |
| U7A U8C U10C U11G C12U C13U | 1.28 |
| U7A U8C U10C U11G C12U C13A | 1.28 |
| U7A U8C U10G U11A C12G C13U | 1.2 |
| U7A U8C U10G U11A C12G C13A | 1.18 |
| U7A U8C U10G U11A C12G C13G | 1.14 |
| U7A U8C G9U U11A C12G C13A | 1.14 |
| U7A U8C G9U U11A C12G C13U | 1.2 |
| U7A U8C G9U U11A C12G C13G | 1.22 |

| Variant | aptazyme ON/OFF ratio |
| --- | --- |
| U7A U8C G9U U11C C12A | 1.28 |
| U7A U8C G9U U11C C12U | 1.15 |
| U7A U8C G9U U11C C12G | 1.27 |
| U7A U8C G9U U11A | 1.19 |
| U7A U8C G9U U11C | 1.1 |
| U7A U8C G9U U11G | 1.29 |
| U7A U8C U10C U11A C12G | 1.28 |
| U7A U8C U10C U11A C12A | 1.29 |
| U7A U8C U10C U11A C12U | 1.19 |
| U7A U8C U10A U11C C12A C13A | 1.07 |
| U7A U8C U10A U11C C12A C13U | 1.08 |
| U7A U8C U10A U11C C12A C13G | 1.17 |
| U7A U8C G9U U10G U11C C12A | 1.25 |
| U7A U8C G9U U10G U11C C12U | 1.12 |
| U7A U8C G9U U10G U11C C12G | 1.32 |
| U7A U8C G9U U11G C12G C13G | 1.16 |
| U7A U8C G9U U11G C12G C13U | 1.07 |
| U7A U8C G9U U11G C12G C13A | 1.22 |
| U7A U8C U10G U11C C12U C13G | 1.29 |
| U7A U8C U10G U11C C12U C13A | 1.36 |
| U7A U8C U10G U11C C12U C13U | 1.51 |
| U7A U8C U10C U11A C13A | 1.15 |
| U7A U8C U10C U11A C13G | 1.16 |
| U7A U8C U10C U11A C13U | 1.17 |

| Variant | aptazyme ON/OFF ratio |
| --- | --- |
| U7A U8C U10A U11C C12G C13G | 1.27 |
| U7A U8C U10A U11C C12G C13A | 1.08 |
| U7A U8C U10A U11C C12G C13U | 1.13 |
| U7A U8C U10G U11G | 1.4 |
| U7A U8C U10G U11A | 1.14 |
| U7A U8C U10G U11C | 1.74 |
| U7A U8C G9U U10G C13U | 1.24 |
| U7A U8C G9U U10G C13G | 1.16 |
| U7A U8C G9U U10G C13A | 1.34 |
| U7A U8C G9U U10G | 3.16 |
| U7A U8C U10G U11G C13G | 1.2 |
| U7A U8C U10G U11G C13U | 1.39 |
| U7A U8C U10G U11G C13A | 1.2 |
| U7A U8C U10C U11A C12U C13U | 1.27 |
| U7A U8C U10C U11A C12U C13G | 1.19 |
| U7A U8C U10C U11A C12U C13A | 1.21 |
| U7A U8C U10A C12G C13U | 1.26 |
| U7A U8C U10A C12G C13G | 1.23 |
| U7A U8C U10A C12G C13A | 1.09 |
| U7A U8C G9U U10C U11G C12U C13A | 1.15 |
| U7A U8C G9U U10C U11G C12U C13G | 1.18 |
| U7A U8C G9U U10C U11G C12U C13U | 1.18 |
| U7A U8C U10C C12A | 1.32 |
